According to patent US20240270857A1 (CHIA TAI TIANQING PHARMACEUTICAL GROUP, published 2024):
Read-outs that look alike come from different tables or passages of the source.

T1: Human IL-1Rrp2/IL-1R6 protein, His Tag (ACROBiosystems, IL2-H52H6) (human, UniProt Q9HB29 20-335)
T1 construct: Bought protein; the soluble protein is likely only the extracellular part; also called hIL-36R; human IL36R antigen; not shown: His tag
T1 sequence: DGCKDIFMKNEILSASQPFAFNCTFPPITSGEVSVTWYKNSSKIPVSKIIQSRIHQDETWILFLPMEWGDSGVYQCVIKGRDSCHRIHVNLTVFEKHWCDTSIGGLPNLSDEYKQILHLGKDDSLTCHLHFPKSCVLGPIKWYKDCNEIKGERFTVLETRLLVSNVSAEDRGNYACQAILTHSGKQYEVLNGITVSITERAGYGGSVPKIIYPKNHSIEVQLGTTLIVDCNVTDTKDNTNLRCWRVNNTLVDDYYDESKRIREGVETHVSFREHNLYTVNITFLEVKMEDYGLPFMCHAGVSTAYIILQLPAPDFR

T2: human IL-36R overexpressed on 293T-hIL36R-NFκB cells (human, UniProt Q9HB29 20-575)
T2 construct: Entry includes the signal peptide; also called IL1RL2; IL-1Rrp2
T2 sequence: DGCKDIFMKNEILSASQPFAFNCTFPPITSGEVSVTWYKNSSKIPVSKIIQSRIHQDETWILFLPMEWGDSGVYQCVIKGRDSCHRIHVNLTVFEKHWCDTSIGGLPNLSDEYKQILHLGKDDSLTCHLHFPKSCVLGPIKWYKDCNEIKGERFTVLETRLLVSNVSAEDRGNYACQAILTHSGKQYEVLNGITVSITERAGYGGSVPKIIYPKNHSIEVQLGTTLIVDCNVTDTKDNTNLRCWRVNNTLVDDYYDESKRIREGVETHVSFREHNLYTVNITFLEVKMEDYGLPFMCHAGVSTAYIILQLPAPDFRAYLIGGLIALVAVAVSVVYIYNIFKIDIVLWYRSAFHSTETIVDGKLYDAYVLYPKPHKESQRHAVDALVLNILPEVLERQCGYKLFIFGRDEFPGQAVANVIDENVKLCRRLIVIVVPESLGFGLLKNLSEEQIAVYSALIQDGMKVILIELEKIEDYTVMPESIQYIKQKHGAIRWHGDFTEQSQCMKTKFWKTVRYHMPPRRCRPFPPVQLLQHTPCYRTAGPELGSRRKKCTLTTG

T3: cynomolgus IL-36R overexpressed on 293T-CynoIL36R-NFκB cells (cynomolgus monkey)
T3 construct: Entry includes the signal peptide; also called monkey IL-36R
T3 chain: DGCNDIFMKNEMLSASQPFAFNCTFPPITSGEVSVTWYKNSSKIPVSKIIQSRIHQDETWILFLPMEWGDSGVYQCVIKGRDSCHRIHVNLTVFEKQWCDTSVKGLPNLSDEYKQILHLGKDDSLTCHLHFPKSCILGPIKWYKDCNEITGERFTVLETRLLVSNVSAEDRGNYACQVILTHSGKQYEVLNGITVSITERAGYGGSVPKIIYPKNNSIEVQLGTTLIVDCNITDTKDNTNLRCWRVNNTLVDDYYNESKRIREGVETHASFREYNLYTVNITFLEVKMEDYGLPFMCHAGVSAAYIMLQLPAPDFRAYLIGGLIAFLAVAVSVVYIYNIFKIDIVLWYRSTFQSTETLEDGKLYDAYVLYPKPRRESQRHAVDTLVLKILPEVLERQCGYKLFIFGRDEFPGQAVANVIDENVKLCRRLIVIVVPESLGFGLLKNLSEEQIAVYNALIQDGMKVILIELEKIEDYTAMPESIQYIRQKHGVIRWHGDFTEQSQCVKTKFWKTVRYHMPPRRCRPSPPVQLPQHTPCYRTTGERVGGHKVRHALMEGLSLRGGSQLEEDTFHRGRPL


Assays:
[1] = biological target: T1, Human IL-1Rrp2/IL-1R6 protein, His Tag …; test: BLI (ForteBio Octet), antibody on ProA sensor, 1:1 model
Description: The affinity of anti-IL-36R antibodies to CynoIL36R-ECD mFc and human IL-1Rrp2/IL-IR6 protein, His Tag (ACROBiosystems, IL2-H52H6) was measured by a ForteBio molecular interaction instrument. […] And then the biosensor was used to bind CynoIL36R-ECD mFc or human IL-1Rrp2/IL-1R6 protein, His Tag which was diluted by a gradient (the initial concentration was 200 nM, 2-fold gradient dilution), the response signals were detected in real time using a Fortebio molecular interaction instrument (SARTORIUS, octet red 96e), and association and dissociation curves were obtained. After the completion of dissociation in each cycle, the biosensor was regenerated for the next capture; the procedure was repeated until the affinity of the different anti-IL-36R antibodies for IL-36R was determined. The resulting data were analyzed by Fortebio Data Analysis 11.0 software in a 1:1 (Langmuir) binding model to determine kₐ (kₒₙ) and kd (koff) values, and the dissociation constant KD was calculated by KD=kd/kₐ. The detection method essentially followed the manufacturer's recommendations, and more information could be found at www.fortebio.com.
(§1) Affinity, binding and blocking assays for humanized antibodies hz72C1-1.1, hz72C1-1.2, hz72C1-1.3, hz72C1-2.1, hz72C1-2.2 and hz72C1-2.3 as well as hz84C4-1.1, hz84C4-1.2, hz84C4-1.3, hz84C4-1.4, hz84C4-1.5, hz84C4-2.1, hz84C4-2.2, hz84C4-2.3, hz84C4-2.4 and hz84C4-2.5 were performed according to the methods of Example 4, Example 5. Example 6, Example 7 and Example 8.

[2] = biological target: T2, human IL-36R overexpressed on …; test: FACS on 293T-hIL36R-NFκB cells, ratio of MFI to background MFI
Description: (§2) After the cells was washed with PBS, the cells were resuspended with 100 μL of PBS and then the fluorescence signal was detected using a flow cytometer (BD, Accuri C6). […] The ratio was the ratio of mean fluorescence intensity (MFI) of the experimental group/the background MFI, and the resulting data were analyzed using GraphPad Prism.
as §1

[3] = biological target: T3, cynomolgus IL-36R overexpressed on …; test: FACS on 293T-CynoIL36R-NFκB cells, ratio of MFI to background MFI
Description: as §2, §1

[4] = biological target: T2, human IL-36R overexpressed on …; test: FACS on 293T-hIL36R-NFκB cells, ratio of MFI to background MFI; remark: listed apart in the source
Description: as §2, §1

Kd [1]	koff [1]	kon [1]	EC50 [2]	EC50 [3]	EC50 [4]	Binder
0.0351 nM	3.91e-06 s⁻¹	111000 M⁻¹ s⁻¹	11.9 nM	–	–	hz72C1-1.2 (antibody, human IgG4 S228P, kappa, Humanized, human IgG4 / kappa) heavy: not shown light: DIQMTQSPSSLSASVGDRVTITCRASSNVRYMYWYQQKPGKAPKLWIYLTSNLASGVPSRFSGSGSGTSYTLTISSLQPEDFATYYCQQFTTSPYTFGQGTKLEIKRTVAAPSVFIFPPSDEQLKSGTASVVCLLNNFYPREAKVQWKVDNALQSGNSQESVTEQDSKDSTYSLSSTLTLSKADYEKHKVYACEVTHQGLSSPVTKSFNRGEC
0.736 nM	4.38e-05 s⁻¹	59600 M⁻¹ s⁻¹	–	–	–	chimeric 72C1 antibody (antibody, human IgG4 S228P, kappa, Mouse variable regions on human IgG4 / kappa; also called xi72C1) heavy: not shown light: EILLTQSPAIMSATLGEKVTMSCRASSNVRYMYWYQLKSGASPKLWIYLTSNLASGVPARFSGSGSGTSYSLTISSVEAEDAATYFCQQFTTSPYTFGGGTKLEIKRTVAAPSVFIFPPSDEQLKSGTASVVCLLNNFYPREAKVQWKVDNALQSGNSQESVTEQDSKDSTYSLSSTLTLSKADYEKHKVYACEVTHQGLSSPVTKSFNRGEC
–	–	–	–	18 nM	~5.28 nM	hz84C4-1.1 (antibody, human IgG4 S228P, kappa, V domains shown, Humanized, human IgG4 / kappa) VH: QVQLVQSGAEVKKPGASVKVSCKASGYFFTSYWMNWVRQAPGQGLEWMGMIHPYDSETRYAQKFQGRVTMTVDKSTSTVYMELSSLRSEDTAVYYCASSTTAFAYWGQGTLVTVSS VL: DIQMTQSPSSLSASVGDRVTITCRASQDIGNALNWYQQKPGKAPKRLIYATSSLDPGVPSRFSGSRSGTDFTLTISSLQPEDFATYYCLQYASSPYTFGQGTKVEIKR
–	–	–	–	37.3 nM	6 nM	hz84C4-1.2 (antibody, human IgG4 S228P, kappa, V domains shown, Humanized, human IgG4 / kappa) VH: QVQLVQSGAEVKKPGASVKVSCKASGYFFTSYWMNWVRQAPGQGLEWMGYIHPYDSETRYAQKFQGRVTMTVDKSTSTVYMELSSLRSEDTAVYYCASSTTAFAYWGQGTLVTVSS VL: DIQMTQSPSSLSASVGDRVTITCRASQDIGNALNWYQQKPGKAPKRLIYATSSLDPGVPSRFSGSRSGTDFTLTISSLQPEDFATYYCLQYASSPYTFGQGTKVEIKR
–	–	–	–	24.4 nM	5.75 nM	hz84C4-1.4 (antibody, human IgG4 S228P, kappa, V domains shown, Humanized, human IgG4 / kappa) VH: QVQLVQSGAEVKKPGASVKVSCKASGYYFTSYWMNWVRQAPGQGLEWMGMIHPYDSETRLAQKFKGRVTMTVDKSTSTVYMELSSLRSEDTAVYYCASSTTAFAYWGQGTLVTVSS VL: DIQMTQSPSSLSASVGDRVTITCRASQDIGNALNWYQQKPGKAPKRLIYATSSLDPGVPSRFSGSRSGTDFTLTISSLQPEDFATYYCLQYASSPYTFGQGTKVEIKR
–	–	–	–	48.2 nM	~5.26 nM	hz84C4-2.4 (antibody, human IgG4 S228P, kappa, V domains shown, Humanized, human IgG4 / kappa) VH: QVQLVQSGAEVKKPGASVKVSCKASGYYFTSYWMNWVRQAPGQGLEWMGMIHPYDSETRLAQKFKGRVTMTVDKSTSTVYMELSSLRSEDTAVYYCASSTTAFAYWGQGTLVTVSS VL: DIQMTQSPSSLSASVGDRVTITCRASQDIGNALNWLQQKPGKAPKRLIYATSSLDPGVPSRFSGSRSGTDYTLTISSLQPEDFATYYCLQYASSPYTFGQGTKVEIKR
–	–	–	–	11.9 nM	~5.04 nM	hz84C4-2.5 (antibody, human IgG4 S228P, kappa, V domains shown, Humanized, human IgG4 / kappa) VH: QVQLVQSGAEVKKPGASVKVSCKVSGYFFTSYWMNWVNQAPGQGLEWMGMIHPYDSETRLAQKFKGRVTMTVDKSTSTVYMELSSLRSEDTAVYYCASSTTAFAYWGQGTLVTVSS VL: DIQMTQSPSSLSASVGDRVTITCRASQDIGNALNWLQQKPGKAPKRLIYATSSLDPGVPSRFSGSRSGTDYTLTISSLQPEDFATYYCLQYASSPYTFGQGTKVEIKR
–	–	–	–	17.1 nM	~5.23 nM	hz84C4-2.2 (antibody, human IgG4 S228P, kappa, V domains shown, Humanized, human IgG4 / kappa) VH: QVQLVQSGAEVKKPGASVKVSCKASGYFFTSYWMNWVRQAPGQGLEWMGYIHPYDSETRYAQKFQGRVTMTVDKSTSTVYMELSSLRSEDTAVYYCASSTTAFAYWGQGTLVTVSS VL: DIQMTQSPSSLSASVGDRVTITCRASQDIGNALNWLQQKPGKAPKRLIYATSSLDPGVPSRFSGSRSGTDYTLTISSLQPEDFATYYCLQYASSPYTFGQGTKVEIKR
–	–	–	–	10.5 nM	~5.1 nM	hz84C4-1.5 (antibody, human IgG4 S228P, kappa, V domains shown, Humanized, human IgG4 / kappa) VH: QVQLVQSGAEVKKPGASVKVSCKVSGYFFTSYWMNWVNQAPGQGLEWMGMIHPYDSETRLAQKFKGRVTMTVDKSTSTVYMELSSLRSEDTAVYYCASSTTAFAYWGQGTLVTVSS VL: DIQMTQSPSSLSASVGDRVTITCRASQDIGNALNWYQQKPGKAPKRLIYATSSLDPGVPSRFSGSRSGTDFTLTISSLQPEDFATYYCLQYASSPYTFGQGTKVEIKR
–	–	–	–	5.75 nM	~5.22 nM	hz84C4-2.1 (antibody, human IgG4 S228P, kappa, V domains shown, Humanized, human IgG4 / kappa) VH: QVQLVQSGAEVKKPGASVKVSCKASGYFFTSYWMNWVRQAPGQGLEWMGMIHPYDSETRYAQKFQGRVTMTVDKSTSTVYMELSSLRSEDTAVYYCASSTTAFAYWGQGTLVTVSS VL: DIQMTQSPSSLSASVGDRVTITCRASQDIGNALNWLQQKPGKAPKRLIYATSSLDPGVPSRFSGSRSGTDYTLTISSLQPEDFATYYCLQYASSPYTFGQGTKVEIKR
–	–	–	–	176 nM	14.5 nM	hz84C4-2.3 (antibody, human IgG4 S228P, kappa, V domains shown, Humanized, human IgG4 / kappa) VH: QVQLVQSGAEVKKPGASVKVSCKASGYFFTSYWMNWVRQAPGQGLEWMGMIYPYDSETRYAQKFQGRVTMTVDKSTSTVYMELSSLRSEDTAVYYCASSTTAFAYWGQGTLVTVSS VL: DIQMTQSPSSLSASVGDRVTITCRASQDIGNALNWLQQKPGKAPKRLIYATSSLDPGVPSRFSGSRSGTDYTLTISSLQPEDFATYYCLQYASSPYTFGQGTKVEIKR
–	–	–	–	9.22 nM	18.2 nM	hz84C4-1.3 (antibody, human IgG4 S228P, kappa, V domains shown, Humanized, human IgG4 / kappa) VH: QVQLVQSGAEVKKPGASVKVSCKASGYFFTSYWMNWVRQAPGQGLEWMGMIYPYDSETRYAQKFQGRVTMTVDKSTSTVYMELSSLRSEDTAVYYCASSTTAFAYWGQGTLVTVSS VL: DIQMTQSPSSLSASVGDRVTITCRASQDIGNALNWYQQKPGKAPKRLIYATSSLDPGVPSRFSGSRSGTDFTLTISSLQPEDFATYYCLQYASSPYTFGQGTKVEIKR
